Results as given in US20210403582A1 (JACOBIO PHARMACEUTICALS, published 2021).

Key:
[1] = biological target: T1, Mut4 heterozygous LIF protein (human LIF with residues 166-202 of …, UniProt P15018 23-201, limits assumed); experiment: western blot of 293T culture supernatants, primary antibody 1 µg/mL, HRP anti-human Fc
T1 construct: Secreted into the supernatant of transfected 293T cells; also called Mut4 protein
Description: (§1) The supernatant of 293T cells transfected with human LIF full-length gene sequence, Mut3 and Mut4 protein sequences after 3 days of culture, and the negative control of 293T cell culture supernatant were taken, 5×SDS-PAGE loading buffer was added, and boiled for 10 minutes. Then 10 μL of sample was taken for SDS-PAGE electrophoresis, and then the electrophoretic bands were transferred to PVDF membrane for western blot detection. The primary antibody for detection was 38E huH3L2 or 38E huH3L4 antibody at a concentration of 1 μg/mL, and was incubated for 2 hours at room temperature. Then washed three times in PBST buffer and diluted HRP-labeled sheep anti-human Fc secondary antibody at a dilution ration of 1:3000 was added, incubated with the secondary antibody for 2 hours at room temperature, washed three times in PBST buffer and enhanced Chemiluminescent solution (Perice, item no. 34079) was added and incubated. An Amersham Imager 600 ultra-sensitive multifunctional imager was used for detection and photograph. […] The same results were obtained in the M1 cell proliferation assay, and the results were detailed in subfigure B in FIG. 22. Therefore, the epitope sequences recognized by the 38E huH3L2 and 38E huH3L4 antibodies were determined to be […] (SEQ ID NO: 61).

[2] = biological target: T2, Mut3 heterozygous LIF protein (human LIF with residues 182-202 of …, UniProt P15018 23-201, limits assumed); experiment: as above
T2 construct: Secreted into the supernatant of transfected 293T cells; also called Mut3 protein
Description: as §1

human LIF protein [3] = biological target: T3, human LIF protein (human, UniProt P15018 23-202); experiment: ELISA, antigen coated 0.5 ug/ml, 293S supernatant non-heated, antibody 0.04 ug/mL
T3 construct: Bought recombinant protein (Sino Biological / Yiqiao Shenzhou 14890-HNAH) in most assays; also called recombinant human LIF protein; rhLIF
Description: (§2) Each well was coated with 100 μL of 0.5 μg/ml antigen and incubate overnight at 4° C., and the plates were washed three times with 300 μL of Wash Buffer. The plates were closed with 200 μL of Closure Buffer (2% bovine serum albumin) for 60 min at room temperature. The plates were washed three times with 300 μL of Wash Buffer. 100 μL of diluted anti-LIF antibody at different concentrations was added to each well and incubate for 1 hour at room temperature. The plates were washed 4 times with 300 μL of Wash Buffer. 100 μL of HRP-labeled goat anti-human Fc secondary antibody at a dilution of 1:5000 was added and incubate for 1 hour at room temperature. The plates were washed 6 times with 300 μL of Wash Buffer. 100 μL of H₂O₂-Amplx Color Development Solution was added for developing the color for 10 min at room temperature under dark conditions. The OD 450 value was read by an enzyme marker. Heat treatment: the expression medium was heated on the PCR machine at 70° C. for 5 min and then rapidly cooled to room temperature. Perform subsequent ELISA assays as above.

human LIF protein [4] = biological target: T3, human LIF protein; experiment: ELISA, antigen coated 0.5 ug/ml, 293S supernatant heated 70 C 5 min, antibody 0.2 ug/mL
Description: as §2

human LIF protein [5] = biological target: T3, human LIF protein; experiment: ELISA, antigen coated 0.5 ug/ml, 293S supernatant heated 70 C 5 min, antibody 1 ug/mL
Description: as §2

human LIF protein [6] = biological target: T3, human LIF protein; experiment: ELISA, antigen coated 0.5 ug/ml, 293S supernatant non-heated, antibody 1 ug/mL
Description: as §2

human LIF protein [7] = biological target: T3, human LIF protein; experiment: ELISA, antigen coated 0.5 ug/ml, 293S supernatant heated 70 C 5 min, antibody 0.04 ug/mL
Description: as §2

human LIF protein [8] = biological target: T3, human LIF protein; experiment: ELISA, antigen coated 0.5 ug/ml, 293S supernatant non-heated, antibody 0.2 ug/mL
Description: as §2

human LIF protein [9] = biological target: T3, human LIF protein; experiment: BLI (Gator), antibody on anti-human Fc biosensor, human LIF in solution
Description: The affinity of anti-LIF antibody to human LIF protein was determined using Gator. The anti-human LIF antibody was first diluted to 5 ug/mL with PBS and then added to A-F wells in second column of the 96-well plate (200 μL per well). […] PBS was added to A-F wells in the first and third columns (200 μL per well). The 96-well plates were placed into the instrument and detected with anti-human Fc biosensor.

human LIF protein [10] = biological target: T3, human LIF protein; experiment: cell-based or functional assay

Row | binding result [2] | ELISA signal (human LIF protein [3]) | ELISA signal (human LIF protein [4]) | ELISA signal (human LIF protein [5]) | ELISA signal (human LIF protein [6]) | ELISA signal (human LIF protein [7]) | ELISA signal (human LIF protein [8]) | Kd (human LIF protein [9]) [nM] | koff (human LIF protein [9]) [s⁻¹] | kon (human LIF protein [9]) [M⁻¹ s⁻¹] | IC50, P-STAT3 (TYR705) in KP4 cells, HTRF kit (human LIF protein [10]) [nM] | Binder | binding result [1]
1 | binds | 6600 | 8780 | 9450 | 11300 | 5060 | 10600 | 0.0538 | 3.39e-05 | 631000 | – | 38E HuH3L2 (antibody, human IgG1, kappa, N297A, Humanized, human IgG1 / kappa) heavy: not shown light: DIHMTQSPSSLSASVGDRVTITCRASENIYSYLAWYQQKPGKSPKLLVYNAKTLAEGVPSRFSGSGSGTDFTLTISSLQPEDFATYYCQHHYVTPLTFGQGTKLEIKRTVAAPSVFIFPPSDEQLKSGTASVVCLLNNFYPREAKVQWKVDNALQSGNSQESVTEQDSKDSTYSLSSTLTLSKADYEKHKVYACEVTHQGLSSPVTKSFNRGEC | no binding (tested: primary antibody 1 µg/mL)
2 | binds | 7060 | 9060 | 9950 | 11900 | 5300 | 11200 | 0.0766 | 4.44e-05 | 579000 | 3.42 | 38E HuH3L4 (antibody, human IgG1, kappa, N297A, Humanized, human IgG1 / kappa) heavy: not shown light: DIHMTQSPSSLSASVGDRVTITCRASENIYSYLAWYQQKQGKSPQLLVYNAKTLAEGVPSRFSGSGSGTQFTLKINSLQPEDFATYYCQHHYVTPLTFGQGTKLEIKRTVAAPSVFIFPPSDEQLKSGTASVVCLLNNFYPREAKVQWKVDNALQSGNSQESVTEQDSKDSTYSLSSTLTLSKADYEKHKVYACEVTHQGLSSPVTKSFNRGEC | no binding (tested: primary antibody 1 µg/mL)
